Target: T1, EGFR in MKN45 stomach cancer cells (Homo sapiens, UniProt P00533)
T1 construct: endogenous in cells; host or cells: MKN45 (JCRB)
Assay: Confocal microscopy of EGFR internalization and degradation in MKN45 cells
Type: cell-based
Details: MKN45, 5 μg/ml each, 4 hrs, confocal images (FIGS. 5-7)
Method: Each antibody was used at a density of 5 μg/ml/well, whether individually or in combination. For control, the cells were treated with PBS only. The cells were immobilized onto the plates by treatment with 4% (v/v) formaldehyde for 15 min, washed three times with PBS, and then blocked with a blocking buffer (0.5% triton x-100 and 5% donkey serum) at room temperature for 1 hr. […] The cells were washed again three times with PBS, and incubated at room temperature for 1 hr with 100 μl of a 1:2000 dilution of a secondary antibody (A21433, Invitrogen). After being washed three times with PBS, the cells were counterstained with a DAPI-containing mounting medium (H-1200, Vector Lab), and examined by Confocal microscopy (Zeiss, LSM710).
Comparison was made of degradation efficiency between the bispecific antibody and a combination of the monospecific antibodies.

B1: anti-EGFR ab: scFv-Fc antibody recognizing EGFR: SEQ ID NO: 109 and 111 variable domains fused to N-terminus of IgG2 Fc (antibody, V domains shown)
VH: QVQLVQSGAEVKKPGSSVKVSCKASGFTFTDYKIHWVRQAPGQGLEWMGYFNPNSGYSTYAQKFQGRVTITADKSTSTAYMELSSLRSEDTAVYYCARLSPGGYYVMDAWGQGTTVTVSS
VL: DIQMTQSPSSLSASVGDRVTITCRASQGINNYLNWYQQKPGKAPKRLIYNTNNLQTGVPSRFSGSGSGTEFTLTISSLQPEDFATYYCLQHNSFPTFGQGTKLEIKRT
modifications: IgG2 Fc without entry; linker; Synthetic (heavy-chain variable region of anti-EGFR antibody); Synthetic (light-chain variable region of anti-EGFR antibody)
For B1, which “internalization into a cell and degradation of EGFR” value is on record?
The value was “induced by neither”.

And the “internalization into a cell and degradation of EGFR” value (listed as anti-EGFR antibody)?
Its value is “did not provoke the degradation of EGFR at all”.
